Molecular target: T1, Extended FH2 FMN1 (UniProt Q05860 961-1466)
T1 sequence (looked up): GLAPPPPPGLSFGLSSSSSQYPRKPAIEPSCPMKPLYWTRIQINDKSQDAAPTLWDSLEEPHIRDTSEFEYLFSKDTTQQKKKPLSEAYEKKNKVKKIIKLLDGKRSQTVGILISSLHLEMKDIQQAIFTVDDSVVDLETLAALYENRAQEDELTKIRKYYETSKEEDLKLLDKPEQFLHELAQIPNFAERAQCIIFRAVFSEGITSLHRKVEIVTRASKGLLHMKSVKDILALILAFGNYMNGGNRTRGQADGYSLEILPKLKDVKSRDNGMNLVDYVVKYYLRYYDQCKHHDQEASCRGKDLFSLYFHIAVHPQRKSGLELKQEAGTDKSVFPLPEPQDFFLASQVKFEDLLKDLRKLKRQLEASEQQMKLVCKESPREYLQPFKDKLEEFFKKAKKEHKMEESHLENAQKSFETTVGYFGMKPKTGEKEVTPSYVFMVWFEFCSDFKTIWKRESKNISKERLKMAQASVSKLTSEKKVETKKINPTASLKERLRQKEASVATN
Experiment: SPR

- Kd: 36.5 nM
- koff: 0.000803 s⁻¹
- kon: 22500 M⁻¹ s⁻¹
B1: N-terminal WW1-WW2 FNBP4 (domain or fragment, UniProt Q8N3X1 214-629, looked up)
chain: GIEMGDWQEVWDENTGCYYYWNTQTNEVTWELPQYLATQVQGLQHYQPSSVPGAETSFVVNTDIYSKEKTISVSSSKSGPVIAKREVKKEVNEGIQALSNSEEEKKGVAASLLAPLLPEGIKEEEERWRRKVICKEEPVSEVKETSTTVEEATTIVKPQEIMLDNIEDPSQEDLCSVVQSGESEEEEEQDTLELELVLERKKAELRALEEGDGSVSGSSPRSDISQPASQDGMRRLMSKRGKWKMFVRATSPESTSRSSSKTGRDTPENGETAIGAENSEKIDENSDKEMEVEESPEKIKVQTTPKVEEEQDLKFQIGELANTLTSKFEFLGINRQSISNFHVLLLQTETRIADWREGALNGNYLKRKLQDAAEQLKQYEINATPKGWSCHWDRDHRRYFYVNEQSGESQWEFPDG

Reference: doi:10.1101/2024.12.07.627365 (bioRxiv, 2024)
